Experimental data as given in PMC4880302, “A Chimeric Pneumovirus Fusion Protein Carrying Neutralizing Epitopes of Both MPV and RSV” (PLoS ONE, 2016).

Target: T1, wild-type HMPV F protein (soluble, secreted, with C-terminal GCNt trimerization domain) (human metapneumovirus, B2 strain)
T1 construct: fusion (F) glycoprotein of human metapneumovirus, B2 strain; soluble secreted form, GCNt joined in-frame with the heptad repeat of the C-terminal HRB; Preparations are mixtures of pre- and post-fusion forms; heating to 50°C for 30 min converts them to the post-fusion form (written as assays of their own); The trimer may rest in part on the GCNt domain; also called wt HMPV F; MPV F-GCNt; not …
Test: SPR; BiOptix 404pi; F proteins captured on NiHC1000m chip through their C-terminal His tag to 120 RU; Fab injected at 300 to 0.14 nM, 100 ul/min; 10 mM HEPES pH 7.2, 150 mM NaCl, 0.005% Tween 20, 50 uM EDTA; simple Langmuir model
Details: both partners purified

B1: motavizumab Fab (affinity-matured variant of palivizumab, anti-RSV F site II/A) (Fab, V domains shown)
VH: QVTLRESGPALVKPTQTLTLTCTFSGFSLSTAGMSVGWIRQPPGKALEWLADIWWDDKKHYNPSLKDRLTISKDTSKNQVVLKVTNMDPADTATYYCARDMIFNFYFDVWGQGTTVTVSS
VL: DIQMTQSPSTLSASVGDRVTITCSASSRVGYMHWYQQKPGKAPKLLIYDTSKLASGVPSRFSGSGSGTEFTLTISSLQPDDFATYYCFQGSGYPFTFGGGTKVEIK
notes: heavy chain of the Fab in the motavizumab:RSV peptide complex PDB 3IXT; light chain of the Fab in the motavizumab:RSV peptide complex PDB 3IXT; Variable genes cloned into pEE6.4 (heavy) and pEE12.4 (light) vectors (Lonza); constant parts of the Fab construct are not described; source: FreeStyle 293-F cells, co-transfected (PEI), purified from supernatant (protein G column)
- binding result: no binding
